Common to all, as to assay: cell-based or functional assay
The target of assay [1] is SARS-CoV-1 Spike on pseudovirus (SARS-CoV-1) (UniProt P59594).
In assay [2] the target is WIV1 Spike on pseudovirus (WIV1 (bat SARS-like coronavirus)).
In assay [3] the target is SARS-CoV-1 Spike on pseudovirus (SARS-CoV-1) (UniProt P59594). This is another data set of the same source.
Assay [4] concerns the target WIV1 Spike on pseudovirus (WIV1 (bat SARS-like coronavirus)). The source holds these as a separate data set.
Assay [5] concerns the target spike (WIV-1) (WIV1 (bat SARS-like coronavirus)).
Assay [6] has as its target spike (SARS-CoV-1) (SARS-CoV-1) (UniProt P59594).

Like-named read-outs stand apart in the source and are kept apart here.

On to AZD1061 (antibody), for which the % neutralization at 4.5 µg/ml, pseudovirus came out at 1.2% in assay [1] and 0.8% in assay [2].

As to AZD8895 (antibody), the % neutralization at 4.5 µg/ml, pseudovirus in assay [1] was 1.7%; in assay [2] it was 0.6%.

With “Sotrovimab VH/VL (human IgG1 molecule expressing the same variable regions of Sotrovimab) (antibody)”, the % neutralization at 4.5 µg/ml, pseudovirus in assay [1] worked out at 101%; in assay [2], 99.4%. The IC50, pseudovirus neutralization in assay [1] was 0.014 µg/mL; in assay [2], 0.032 µg/mL; in assay [3] it was 0.0089 µg/mL; in assay [4], 0.0274 µg/mL.

For the substance bebtelovimab (antibody), the Emax, pseudovirus neutralization (% neutralization) in assay [5] turned out to be 6.99; in assay [6] it was 8.
